The text below walks through data of the supplement of paper PMC10126150.

± gives the standard deviation of the averaged measurements.

The series has as its system ATP. The experiment in a line: switch fluorescence ratio, 500 uM ATP over buffer (Cy3 cluster intensity, sum of 5 cycles each) (fold (ratio)); higher = stronger signal-on switching upon ATP binding; sequences stand for … in TCGTCGGCAGCGTCAGATGTGTATAAGAGACAGTTTTTTTTTTTTTTTTTTTTTTTTT…TC. Particulars: aptamer strand: ATP DNA aptamer (quencher-CACCTGGGGGAGTATTGCGGAGGAAGG + anchor), 100 nM annealed; ATP concentration: 500 uM. An outline of the steps: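 Exposure to 500 uM ATP lasted 15 min at 22 °C before imaging, and a selection-buffer image was taken beforehand, for Cy3-labelled switching-strand clusters on a modified Illumina MiSeq flow-cell annealed to 100 nM quencher-labelled ATP aptamer. Five buffer/ATP cycles were run with NaOH stripping and re-annealing between them. The fluorescence ratio per cluster is summed target-cycle over summed buffer-cycle Cy3 intensity, averaged per switch-domain sequence. Clusters outside 100-1000 RFU were excluded.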

Regarding TGGTTTAATA, the switch fluorescence ratio came to 0.9853 ± 0.0079.

As to TTGGTAAAGA, the switch fluorescence ratio turned out to be 1 ± 0.013.

With CCAGCGGGGC, the switch fluorescence ratio came out at 1.05 ± 0.019.

Regarding CCGTAATCAG, the switch fluorescence ratio amounted to 1.98 ± 0.14.

For the sequence CGAGGTAGAG, the switch fluorescence ratio was 1.01 ± 0.049.

As to TTATTTCGTT, the switch fluorescence ratio turned out to be 0.989 ± 0.026.

On to GCCTTAGCTC, for which the switch fluorescence ratio was 1.04 ± 0.015.

GTTAGGGCGG: the switch fluorescence ratio was 0.998 ± 0.042.

Consider GCAGGTGAGG, for which the switch fluorescence ratio came out at 1.18 ± 0.044.

Take CTTCGTACAG: the switch fluorescence ratio amounted to 1.02 ± 0.014.

Regarding ACAGGCGCTT, the switch fluorescence ratio was found to be 1.01 ± 0.013.

As to TAATGAATGT, the switch fluorescence ratio is 1.02 ± 0.04.

As for ATTACGAAGA, the switch fluorescence ratio is 1.01 ± 0.011.

As to TTTCACAAAG, the switch fluorescence ratio came out at 1 ± 0.018.

With GTGGCTTGTG, the switch fluorescence ratio turned out to be 1 ± 0.029.

CCTGTTACTT: the switch fluorescence ratio was 0.97 ± 0.04.

For AAGCCCGGGA, the switch fluorescence ratio was 1.45 ± 0.67.

Consider GGGGTTACAG, for which the switch fluorescence ratio is 1.01 ± 0.013.

As for TGTACGACGG, the switch fluorescence ratio was 1.02 ± 0.023.

In the case of CTTCCTTTTT, the switch fluorescence ratio was determined as 3.13 ± 3.

GCCGTTGGAA: the switch fluorescence ratio was 1.01 ± 0.024.

Turning to CCAGAGGGAT, the switch fluorescence ratio was 0.992 ± 0.024.

As to TCACTGAGCT, the switch fluorescence ratio was 1.05 ± 0.034.

For ATAGGAGTCT, the switch fluorescence ratio came out at 1.09 ± 0.016.

Consider TAGTATTCTG, for which the switch fluorescence ratio stood at 0.986 ± 0.021.

In the case of GGGTTTGGAA, the switch fluorescence ratio turned out to be 0.961 ± 0.027.

Regarding GATGTAATGT, the switch fluorescence ratio was found to be 1.0081 ± 0.00064.

Take CCACCGGGCC: the switch fluorescence ratio is 1.36 ± 0.076.

Regarding CCACAGTAAT, the switch fluorescence ratio amounted to 4.75 ± 0.34.

Turning to GAGTGAGTAG, the switch fluorescence ratio was 0.9794 ± 0.0059.

For AGAGTCTGGT, the switch fluorescence ratio was 0.965 ± 0.03.

Turning to TGGGTTCACT, the switch fluorescence ratio turned out to be 1.02 ± 0.017.

Regarding TAGGGGGTCT, the switch fluorescence ratio amounted to 1.21 ± 0.47.

For TAGTCGTTTC, the switch fluorescence ratio was 1.02 ± 0.035.

GGAAAAAGTG: the switch fluorescence ratio is 0.991 ± 0.014.

With AGGAATGGGA, the switch fluorescence ratio stood at 1.02 ± 0.02.

Take ATGTAGTTCC: the switch fluorescence ratio is 1.064 ± 0.0022.

TTGGGCGTGT: the switch fluorescence ratio was 0.987 ± 0.021.

As for GCCTGTTGCA, the switch fluorescence ratio came out at 0.9709 ± 0.0037.

In the case of GCAGCGGGGG, the switch fluorescence ratio stood at 1.01 ± 0.027.

With TGCGGGGTAC, the switch fluorescence ratio was 1.25 ± 0.045.

Take ATTCGGGAAG: the switch fluorescence ratio came to 1.003 ± 0.0078.

As for GGGGCAAGAT, the switch fluorescence ratio worked out at 1.52 ± 0.78.

As to TTTTGGTAAC, the switch fluorescence ratio was 1.014 ± 0.0072.

With ACGAGGATGC, the switch fluorescence ratio came to 1.09 ± 0.024.

On to ATTAGGTTTC, for which the switch fluorescence ratio stood at 1.01 ± 0.062.

Consider CGAAATGGCG, for which the switch fluorescence ratio is 1.053 ± 0.0038.

In the case of CGGCCGAACT, the switch fluorescence ratio stood at 1.033 ± 0.0064.

As for CATTAGCGCA, the switch fluorescence ratio amounted to 1.047 ± 0.0084.

TCAGGAGTTT: the switch fluorescence ratio was determined as 1.04 ± 0.011.

In the case of TGAGAGCTGG, the switch fluorescence ratio was found to be 0.98517 ± 0.00094.

On to GGATCACTTA, for which the switch fluorescence ratio stood at 1.02 ± 0.023.

In the case of TTGACTGGTG, the switch fluorescence ratio was 1.02 ± 0.013.

Consider AGAGAGGAGT, for which the switch fluorescence ratio was found to be 0.982 ± 0.021.

Regarding TAGGGGGATT, the switch fluorescence ratio is 1.014 ± 0.0089.

Regarding CATGGATTAA, the switch fluorescence ratio amounted to 1 ± 0.011.

In the case of AGGATCATGT, the switch fluorescence ratio came to 0.966 ± 0.042.

Regarding TTAGGACTTT, the switch fluorescence ratio worked out at 0.975 ± 0.037.

AGAGTTTTTA: the switch fluorescence ratio was 1.01 ± 0.035.

On to ATTCATAGGT, for which the switch fluorescence ratio amounted to 0.992 ± 0.014.

As to GTGTGAGTAG, the switch fluorescence ratio worked out at 1.02 ± 0.039.

As for GTGGGGGAAT, the switch fluorescence ratio was determined as 1 ± 0.011.

In the case of CATCGTTGGT, the switch fluorescence ratio turned out to be 0.999 ± 0.0029.

On to TTCATAGTCG, for which the switch fluorescence ratio was found to be 0.98 ± 0.07.

As to CACCATTAAT, the switch fluorescence ratio amounted to 1.01 ± 0.017.

Regarding ATTGAATTAG, the switch fluorescence ratio stood at 0.961 ± 0.011.
